Assays:
Test in all cases: SPR, ratio of KD to KD of WT
FVII(a) variant T185A = biological target: T1, FVII(a) variant T185A (human, UniProt P08709 61-466)
T1 construct: hFVII alanine variant in cell culture supernatant
T1 sequence: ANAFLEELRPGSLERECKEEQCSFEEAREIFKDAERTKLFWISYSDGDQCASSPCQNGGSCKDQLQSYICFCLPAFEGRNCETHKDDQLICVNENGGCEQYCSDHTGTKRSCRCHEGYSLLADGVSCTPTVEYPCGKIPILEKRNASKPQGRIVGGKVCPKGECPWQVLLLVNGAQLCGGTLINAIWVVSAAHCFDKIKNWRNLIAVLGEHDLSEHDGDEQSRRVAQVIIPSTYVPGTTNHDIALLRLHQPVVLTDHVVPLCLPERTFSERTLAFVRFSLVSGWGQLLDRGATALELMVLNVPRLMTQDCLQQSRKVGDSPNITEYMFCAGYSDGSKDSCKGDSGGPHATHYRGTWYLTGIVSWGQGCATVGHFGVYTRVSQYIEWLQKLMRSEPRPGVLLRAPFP
Description: (§1) The running buffer was prepared by diluting 10-fold the 10×HBS-P buffer (supplied by GE Healthcare) and supplemented with 1 mg/ml BSA and 5 mM CaCl2 to give 10 mM HEPES, 150 mM NaCl, 0.05% v/v Polysorbate 20, pH 7.4, 5 mM CaCl2, 1 mg/ml bovine serum albumin (BSA). […] Regeneration of the chip was achieved using 10 mM HEPES, 150 mM NaCl, 20 mM EDTA, 0.05 v/v Polysorbate 20, pH 7.4. Binding data were analysed according to a 1:1 Kinetic model and steady state analysis using BiaEvaluation 4.1 supplied by the manufacturer (Biacore AB, Uppsala, Sweden). Wherever possible, ka, kd and KD values from 1:1 kinetic fitting model are reported. […] An amino acid residue is considered a hot-spot residue if substitution of that amino acid residue with alanine results in an affinity reduction of ten (10) fold or more relative to the wild type.

FVII(a) variant T130A = biological target: T2, FVII(a) variant T130A (human, UniProt P08709 61-466)
T2 construct: hFVII alanine variant in cell culture supernatant
T2 sequence: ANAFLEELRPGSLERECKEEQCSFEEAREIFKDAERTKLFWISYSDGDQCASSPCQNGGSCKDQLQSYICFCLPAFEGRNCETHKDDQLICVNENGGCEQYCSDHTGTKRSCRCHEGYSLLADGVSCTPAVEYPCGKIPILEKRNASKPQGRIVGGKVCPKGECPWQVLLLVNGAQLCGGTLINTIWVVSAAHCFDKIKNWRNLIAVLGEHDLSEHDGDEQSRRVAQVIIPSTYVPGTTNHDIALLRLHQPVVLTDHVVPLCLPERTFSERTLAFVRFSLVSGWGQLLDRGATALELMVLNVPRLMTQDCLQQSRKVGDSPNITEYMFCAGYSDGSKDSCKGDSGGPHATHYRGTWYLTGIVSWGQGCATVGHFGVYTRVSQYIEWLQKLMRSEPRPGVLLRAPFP
Description: as §1

FVII(a) variant E265A = biological target: T3, FVII(a) variant E265A (human, UniProt P08709 61-466)
T3 construct: hFVII alanine variant in cell culture supernatant
T3 sequence: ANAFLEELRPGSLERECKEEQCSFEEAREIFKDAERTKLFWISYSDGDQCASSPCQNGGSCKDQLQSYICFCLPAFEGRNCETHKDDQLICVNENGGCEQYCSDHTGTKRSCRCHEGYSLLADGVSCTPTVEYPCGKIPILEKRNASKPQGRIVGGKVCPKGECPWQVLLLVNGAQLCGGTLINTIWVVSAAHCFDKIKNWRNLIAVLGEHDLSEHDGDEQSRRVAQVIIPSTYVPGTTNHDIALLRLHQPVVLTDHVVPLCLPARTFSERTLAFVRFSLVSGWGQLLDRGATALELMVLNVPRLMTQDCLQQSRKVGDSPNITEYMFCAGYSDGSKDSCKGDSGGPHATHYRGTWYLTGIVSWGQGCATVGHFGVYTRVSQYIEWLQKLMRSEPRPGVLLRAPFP
Description: as §1

FVII(a) variant I186A = biological target: T4, FVII(a) variant I186A (human, UniProt P08709 61-466)
T4 construct: hFVII alanine variant in cell culture supernatant
T4 sequence: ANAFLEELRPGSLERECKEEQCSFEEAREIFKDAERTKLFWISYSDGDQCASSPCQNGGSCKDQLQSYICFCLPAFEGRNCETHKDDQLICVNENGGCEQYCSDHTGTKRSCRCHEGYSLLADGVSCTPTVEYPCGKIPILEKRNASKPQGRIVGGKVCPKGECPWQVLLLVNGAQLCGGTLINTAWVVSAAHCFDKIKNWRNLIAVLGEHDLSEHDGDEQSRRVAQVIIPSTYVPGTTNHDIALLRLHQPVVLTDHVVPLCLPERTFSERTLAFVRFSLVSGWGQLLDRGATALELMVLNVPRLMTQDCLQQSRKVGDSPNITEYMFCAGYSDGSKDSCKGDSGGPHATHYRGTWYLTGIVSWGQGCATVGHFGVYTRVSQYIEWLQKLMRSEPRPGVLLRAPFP
Description: as §1

FVII(a) variant Y118A = biological target: T5, FVII(a) variant Y118A (human, UniProt P08709 61-466)
T5 construct: hFVII alanine variant in cell culture supernatant
T5 sequence: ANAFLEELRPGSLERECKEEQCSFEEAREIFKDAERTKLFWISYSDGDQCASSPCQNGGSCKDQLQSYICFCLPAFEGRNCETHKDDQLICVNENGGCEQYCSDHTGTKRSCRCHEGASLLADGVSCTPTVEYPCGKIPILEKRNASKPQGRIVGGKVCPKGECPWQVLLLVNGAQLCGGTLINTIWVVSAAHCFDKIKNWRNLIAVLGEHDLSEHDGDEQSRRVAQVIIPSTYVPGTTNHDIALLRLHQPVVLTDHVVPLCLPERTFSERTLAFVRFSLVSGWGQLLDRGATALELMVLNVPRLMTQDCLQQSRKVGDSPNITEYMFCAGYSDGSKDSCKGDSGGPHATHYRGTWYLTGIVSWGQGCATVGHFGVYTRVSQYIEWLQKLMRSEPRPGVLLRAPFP
Description: as §1

Fold diff (Variant/WT) (FVII(a) variant T185A): 3.3 fold
Fold diff (Variant/WT) (FVII(a) variant T130A): 105 fold
Fold diff (Variant/WT) (FVII(a) variant E265A): 3.2 fold
Fold diff (Variant/WT) (FVII(a) variant I186A): 1.3 fold
Fold diff (Variant/WT) (FVII(a) variant Y118A): 4.9 fold
B1: mAb0842(OA) (antibody, human IgG4 S228P, kappa)
heavy: QVQLQESGPGLVKPSQTLSLTCTVSGYSISSDSAWSWIRQPPGKGLEWIGYIQYSGSTNYNPSLKSRVTISRDTSKNQFSLKLSSVTAADTAVYYCARSVNYYGNSFAVGYWGQGTLVTVSSASTKGPSVFPLAPCSRSTSESTAALGCLVKDYFPEPVTVSWNSGALTSGVHTFPAVLQSSGLYSLSSVVTVPSSSLGTKTYTCNVDHKPSNTKVDKRVESKYGPPCPPCPAPEFLGGPSVFLFPPKPKDTLMISRTPEVTCVVVDVSQEDPEVQFNWYVDGVEVHNAKTKPREEQFNSTYRVVSVLTVLHQDWLNGKEYKCKVSNKGLPSSIEKTISKAKGQPREPQVYTLPPSQEEMTKNQVSLSCAVKGFYPSDIAVEWESNGQPENNYKTTPPVLDSDGSFFLVSRLTVDKSRWQEGNVFSCSVMHEALHNHYTQKSLSLSLGK
light: EIVLTQSPATLSLSPGERATLSCRASQGISDYLHWYQQKPGEAPRLLIKYTSQPATGIPARFSGSGSGTDFTLTISSLEPEDFAVYYCQNGHSFPLTFGQGTKLEIKRTVAAPSVFIFPPSDEQLKSGTASVVCLLNNFYPREAKVQWKVDNALQSGNSQESVTEQDSKDSTYSLSSTLTLSKADYEKHKVYACEVTHQGLSSPVTKSFNRGEC
chain: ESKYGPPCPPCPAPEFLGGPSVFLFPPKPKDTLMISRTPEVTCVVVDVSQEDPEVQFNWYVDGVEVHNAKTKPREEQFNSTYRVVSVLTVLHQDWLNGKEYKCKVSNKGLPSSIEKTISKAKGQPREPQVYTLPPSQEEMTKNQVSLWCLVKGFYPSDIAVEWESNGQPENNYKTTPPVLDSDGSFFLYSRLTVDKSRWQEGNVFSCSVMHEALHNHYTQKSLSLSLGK
notes: also called monovalent humanized 11F2 antibody; one-armed anti-FVII(a) antibody

— US20220064329A1 (Novo Nordisk, published 2022)
